# Data reported in publication doi:10.1101/2022.12.23.521429v4.
# System: Nc1ncnc2c1ncn2[C@@H]1O[C@H](COP(=O)(O)OP(=O)(O)OP(=O)(O)O)[C@@H](O)[C@H]1O
# Assay: kinase activity assay
# Type: biochemical, Homo sapiens
# Conditions: co-substrate and buffer of the KM determination not told
substance,measurement,value
DYRK1B kinase domain (78-442) (Homo sapiens),Km,105 µM
